Assay results taken from patent US20030099969A1 (published 2003).

T1: T7-tagged full length Ipaf
T1 chain: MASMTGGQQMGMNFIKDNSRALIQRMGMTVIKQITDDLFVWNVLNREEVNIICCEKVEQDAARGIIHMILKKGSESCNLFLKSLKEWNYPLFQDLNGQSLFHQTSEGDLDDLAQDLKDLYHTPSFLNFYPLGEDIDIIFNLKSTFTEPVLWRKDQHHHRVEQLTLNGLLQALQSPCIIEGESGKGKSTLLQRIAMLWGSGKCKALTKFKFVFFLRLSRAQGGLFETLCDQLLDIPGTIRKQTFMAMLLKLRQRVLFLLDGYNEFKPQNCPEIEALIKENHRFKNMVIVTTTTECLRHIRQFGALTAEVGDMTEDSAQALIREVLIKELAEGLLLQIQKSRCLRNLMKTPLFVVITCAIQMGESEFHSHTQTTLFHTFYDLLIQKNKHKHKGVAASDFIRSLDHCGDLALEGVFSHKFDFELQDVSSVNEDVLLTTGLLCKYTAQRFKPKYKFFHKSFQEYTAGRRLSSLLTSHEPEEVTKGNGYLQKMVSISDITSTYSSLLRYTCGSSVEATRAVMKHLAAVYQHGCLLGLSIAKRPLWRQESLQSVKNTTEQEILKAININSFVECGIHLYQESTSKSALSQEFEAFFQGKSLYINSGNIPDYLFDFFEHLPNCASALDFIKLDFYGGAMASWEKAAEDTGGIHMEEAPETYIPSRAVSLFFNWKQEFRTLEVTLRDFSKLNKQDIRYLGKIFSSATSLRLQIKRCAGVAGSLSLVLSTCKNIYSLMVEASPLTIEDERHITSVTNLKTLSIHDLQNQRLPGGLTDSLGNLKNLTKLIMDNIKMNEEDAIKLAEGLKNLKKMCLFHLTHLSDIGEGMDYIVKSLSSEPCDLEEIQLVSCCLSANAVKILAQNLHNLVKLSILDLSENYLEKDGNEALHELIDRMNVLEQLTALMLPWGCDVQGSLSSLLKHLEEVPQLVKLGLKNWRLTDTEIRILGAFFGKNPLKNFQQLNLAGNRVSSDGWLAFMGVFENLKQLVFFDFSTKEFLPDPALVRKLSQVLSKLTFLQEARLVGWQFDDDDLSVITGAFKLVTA

T2: Ipaf 1-661
T2 chain: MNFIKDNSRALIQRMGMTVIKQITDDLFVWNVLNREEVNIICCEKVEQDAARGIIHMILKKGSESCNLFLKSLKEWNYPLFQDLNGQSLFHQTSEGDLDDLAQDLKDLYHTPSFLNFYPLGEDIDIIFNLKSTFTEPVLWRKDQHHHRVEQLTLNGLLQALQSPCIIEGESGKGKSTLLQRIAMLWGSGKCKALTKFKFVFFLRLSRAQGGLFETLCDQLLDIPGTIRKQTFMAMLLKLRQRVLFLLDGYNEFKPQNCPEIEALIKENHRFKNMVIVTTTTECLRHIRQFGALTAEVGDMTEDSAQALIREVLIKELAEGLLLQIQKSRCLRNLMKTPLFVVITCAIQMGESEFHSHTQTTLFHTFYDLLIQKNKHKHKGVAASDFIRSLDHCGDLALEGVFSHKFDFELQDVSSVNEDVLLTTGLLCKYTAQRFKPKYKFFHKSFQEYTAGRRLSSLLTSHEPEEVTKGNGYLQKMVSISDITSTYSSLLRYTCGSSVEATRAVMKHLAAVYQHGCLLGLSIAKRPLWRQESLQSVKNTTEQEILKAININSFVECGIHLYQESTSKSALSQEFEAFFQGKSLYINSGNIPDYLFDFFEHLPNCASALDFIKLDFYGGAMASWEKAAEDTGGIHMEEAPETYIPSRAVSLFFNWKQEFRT

B1: N-terminally Flag-tagged procaspase-1 (protein)
chain: DYKDDDDKMADKVLKEKRKLFIRSMGEGTINGLLDELLQTRVLNKEEMEKVKRENATVMDKTRALIDSVIPKGAQACQICITYICEEDSYLAGTLGLSADQTSGNYLNMQDSQGVLSSFPAPQAVQDNPAMPTSSGSEGNVKLCSLEEAQRIWKQKSAEIYPIMDKSSRTRLALIICNEEFDSIPRRTGAEVDITGMTMLLQNLGYSVDVKKNLTASDMTTELEAFAHRPEHKTSDSTFLVFMSHGIREGICGKKHSEQVPDILQLNAIFNMLNTKNCPSLKDKPKVIIIQACRGDSPGVVWFKDSVGVSGNLSLPTTEEFEDDAIKKAHIEKDFIAFCSSTPDNVSWRHPTMGSVFIGRLIEHMQEYACSCDVEEIFRKVRFSFEQPDGRAQMPTTERVTLTRCFYLFPGH
B2: Flag-tagged CARD-deleted mutant (residues 80-1024) of Ipaf (other)
chain: DYKDDDDKLFQDLNGQSLFHQTSEGDLDDLAQDLKDLYHTPSFLNFYPLGEDIDIIFNLKSTFTEPVLWRKDQHHHRVEQLTLNGLLQALQSPCIIEGESGKGKSTLLQRIAMLWGSGKCKALTKFKFVFFLRLSRAQGGLFETLCDQLLDIPGTIRKQTFMAMLLKLRQRVLFLLDGYNEFKPQNCPEIEALIKENHRFKNMVIVTTTTECLRHIRQFGALTAEVGDMTEDSAQALIREVLIKELAEGLLLQIQKSRCLRNLMKTPLFVVITCAIQMGESEFHSHTQTTLFHTFYDLLIQKNKHKHKGVAASDFIRSLDHCGDLALEGVFSHKFDFELQDVSSVNEDVLLTTGLLCKYTAQRFKPKYKFFHKSFQEYTAGRRLSSLLTSHEPEEVTKGNGYLQKMVSISDITSTYSSLLRYTCGSSVEATRAVMKHLAAVYQHGCLLGLSIAKRPLWRQESLQSVKNTTEQEILKAININSFVECGIHLYQESTSKSALSQEFEAFFQGKSLYINSGNIPDYLFDFFEHLPNCASALDFIKLDFYGGAMASWEKAAEDTGGIHMEEAPETYIPSRAVSLFFNWKQEFRTLEVTLRDFSKLNKQDIRYLGKIFSSATSLRLQIKRCAGVAGSLSLVLSTCKNIYSLMVEASPLTIEDERHITSVTNLKTLSIHDLQNQRLPGGLTDSLGNLKNLTKLIMDNIKMNEEDAIKLAEGLKNLKKMCLFHLTHLSDIGEGMDYIVKSLSSEPCDLEEIQLVSCCLSANAVKILAQNLHNLVKLSILDLSENYLEKDGNEALHELIDRMNVLEQLTALMLPWGCDVQGSLSSLLKHLEEVPQLVKLGLKNWRLTDTEIRILGAFFGKNPLKNFQQLNLAGNRVSSDGWLAFMGVFENLKQLVFFDFSTKEFLPDPALVRKLSQVLSKLTFLQEARLVGWQFDDDDLSVITGAFKLVTA
notes: also called Flag-?CARD Ipag; CARD-truncated Ipaf mutant

Tests used:
[1] = biological target: T1, T7-tagged full length Ipaf
[2] = biological target: T2, Ipaf 1-661
[3] = biological target: T3, T7-tagged full length Ipaf (human, UniProt Q9NPP4 1-1024); assay: co-immunoprecipitation from 293T lysates (IP anti-Flag, blot anti-T7)
T3 construct: also called T7-Ipaf; T7-tagged Ipaf
Procedure: 24 hours following transfection, cells were lysed in 50 mM Tris/HCl pH 7.6, 150 mM NaCl containing 0.5% NP-40, 10 μg.ml⁻¹ leupeptin and aprotinin and 0.1 mM PMSF and clarified by centrifugation at 15,000 g for 15 min. The clarified lysates were preabsorbed on protein G-Sepharose (Pharmacia) and then incubated with anti-FLAG-M5 monoclonal antibody (Eastman Kodak Co.) for 2 hours, followed by protein G-Sepharose agarose IgG beads. Immune complexes were washed extensively in the lysis buffer and eluted by boiling in an SDS sample buffer. The eluted proteins were resolved by SDS-PAGE and detected by Western analysis with a horseradish peroxidase-conjugate T7-antibody (Novagen). GST Pull-down assays were performed as described (Ahmad et al., Cancer Res 57:615-9, 1997).
24 hours following transfection, cells were lysed and the lysates immunoprecipitated (IP) with an anti-Flag antibody. The immunoprecipitates were immunoblotted (IB) with an anti-T7 antibody. Expression of T7-Ipaf or Flag-tagged constructs was determined by immunoblotting (IB) with anti-T7 or anti-Flag antibodies, respectively. […] This association was dependent on the N-terminal CARD as deletion of this domain prevented the CARD-truncated Ipaf mutant from interacting with the full-length Ipaf. Moreover, the epitope-tagged CARD of Ipaf was able to co-immunoprecipitate the full-length protein.

Binder	proteolytic activation (processing) of procaspase-1, anti-Flag immunoblot of 293T lysates [1]	proteolytic activation (processing) of procaspase-1, anti-Flag immunoblot of 293T lysates [2]	binding result [3]
B1	Co-expression of the LRR-truncated Ipaf mutant, but not the full-length protein, was able to induce proteolytic activation of procaspase-1	Co-expression of the LRR-truncated Ipaf mutant, but not the full-length protein, was able to induce proteolytic activation of procaspase-1	
B2			no binding
